We go through 3 sequences from the supplement of paper PMC6379048.

In one data set the target is T1, FIP1L1 (UniProt Q6UN15).
T1 sequence: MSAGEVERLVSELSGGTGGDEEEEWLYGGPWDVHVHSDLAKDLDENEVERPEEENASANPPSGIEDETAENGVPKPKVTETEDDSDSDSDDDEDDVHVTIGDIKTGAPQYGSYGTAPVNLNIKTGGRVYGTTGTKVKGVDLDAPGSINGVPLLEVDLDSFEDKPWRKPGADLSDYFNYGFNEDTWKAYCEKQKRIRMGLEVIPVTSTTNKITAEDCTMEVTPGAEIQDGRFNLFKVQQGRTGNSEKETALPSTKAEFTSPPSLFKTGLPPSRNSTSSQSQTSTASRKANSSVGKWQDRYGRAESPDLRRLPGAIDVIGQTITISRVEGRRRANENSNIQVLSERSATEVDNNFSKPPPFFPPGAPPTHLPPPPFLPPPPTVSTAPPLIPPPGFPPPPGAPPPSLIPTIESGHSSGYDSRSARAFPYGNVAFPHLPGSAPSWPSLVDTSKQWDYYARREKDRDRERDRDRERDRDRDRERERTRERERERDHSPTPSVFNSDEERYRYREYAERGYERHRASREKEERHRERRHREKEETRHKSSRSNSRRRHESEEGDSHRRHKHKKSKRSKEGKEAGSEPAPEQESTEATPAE
Nature of the data set: EC50 of free RNA motif oligo competing protein binding to immobilised probe. A digest of the protocol: (§1)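 HEK293-FT lysate (2.5 mg protein/well) was pre-incubated 1 h at 4°C with free RNA oligos (0 nM to 30 μM), then 30 min at 4°C with the same 5′-amino-C6 oligos coupled to NHS-Sepharose beads. Bound proteins were quantified by label-free LC-MS/MS in three biological replicates and two independent experiments, and normalised to the water control. EC50 came from a four-parameter log-logistic fit; Kd is EC50 times a protein-dependent depletion factor.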

Another data set concerns the target T2, MEX3A (UniProt A1L020).
T2 sequence: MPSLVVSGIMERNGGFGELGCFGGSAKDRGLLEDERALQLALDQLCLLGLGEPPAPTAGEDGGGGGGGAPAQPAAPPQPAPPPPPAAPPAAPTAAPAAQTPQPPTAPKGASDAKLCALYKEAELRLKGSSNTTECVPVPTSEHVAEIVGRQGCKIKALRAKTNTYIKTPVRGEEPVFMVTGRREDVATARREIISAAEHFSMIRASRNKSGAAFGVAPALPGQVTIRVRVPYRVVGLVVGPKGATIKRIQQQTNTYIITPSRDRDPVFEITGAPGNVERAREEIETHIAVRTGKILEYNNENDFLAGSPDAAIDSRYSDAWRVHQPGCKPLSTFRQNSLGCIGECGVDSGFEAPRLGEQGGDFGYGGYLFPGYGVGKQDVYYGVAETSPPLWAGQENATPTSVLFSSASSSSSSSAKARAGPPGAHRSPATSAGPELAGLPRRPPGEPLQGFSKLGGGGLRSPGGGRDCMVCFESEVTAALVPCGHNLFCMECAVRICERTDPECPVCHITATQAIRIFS
The description is as above. A digest of the protocol: as §1

Another data set concerns the target SRRM2 (UniProt Q9UQ35). Briefly: Kd (EC50 corrected by depletion factor). A digest of the protocol: as §1
The next data set addresses P4HA2 (UniProt O15460). Briefly: Kd (EC50 corrected by depletion factor). Put shortly:
as §1

For the next data set, the target named is RPS3A (UniProt P61247). Nature of the data set: Kd (EC50 corrected by depletion factor). Put shortly: as §1
A further data set addresses MRPL39 (UniProt Q9NYK5). Briefly: Kd (EC50 corrected by depletion factor). Put shortly:
as §1

The next data set addresses RPS18 (UniProt P62269). Briefly: Kd (EC50 corrected by depletion factor). Put shortly:
as §1

Another data set concerns the target MRPL53 (UniProt Q96EL3). Briefly: Kd (EC50 corrected by depletion factor). Put shortly:
as §1

The next data set concerns the target RPS25 (UniProt P62851). Briefly: Kd (EC50 corrected by depletion factor). A digest of the protocol: as §1
The target of a further data set is T3, ZCRB1 (UniProt Q8TBF4).
T3 sequence: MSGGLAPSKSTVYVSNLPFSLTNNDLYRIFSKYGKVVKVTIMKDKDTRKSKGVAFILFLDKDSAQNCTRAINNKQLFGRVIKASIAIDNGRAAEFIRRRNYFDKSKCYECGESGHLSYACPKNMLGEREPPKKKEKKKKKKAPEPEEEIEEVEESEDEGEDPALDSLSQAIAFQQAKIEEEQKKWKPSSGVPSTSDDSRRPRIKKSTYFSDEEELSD
Nature of the data set: Kd (EC50 corrected by depletion factor). Put shortly:
as §1

For another data set, the target named is MRPS27 (UniProt Q92552). Nature of the data set: Kd (EC50 corrected by depletion factor). Put shortly: as §1
A further data set has as its target T4, ERAL1 (UniProt O75616).
T4 sequence: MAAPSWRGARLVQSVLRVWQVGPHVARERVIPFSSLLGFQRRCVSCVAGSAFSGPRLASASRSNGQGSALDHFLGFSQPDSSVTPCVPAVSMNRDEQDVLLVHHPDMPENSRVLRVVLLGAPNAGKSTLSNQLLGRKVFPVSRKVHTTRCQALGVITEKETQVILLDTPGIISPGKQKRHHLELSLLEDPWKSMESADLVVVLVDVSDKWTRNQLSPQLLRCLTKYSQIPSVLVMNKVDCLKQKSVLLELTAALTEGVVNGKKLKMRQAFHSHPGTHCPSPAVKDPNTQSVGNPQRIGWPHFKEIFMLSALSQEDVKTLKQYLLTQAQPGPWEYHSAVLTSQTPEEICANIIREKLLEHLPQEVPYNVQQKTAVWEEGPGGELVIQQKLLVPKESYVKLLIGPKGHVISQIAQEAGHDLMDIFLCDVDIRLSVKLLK
Nature of the data set: Kd (EC50 corrected by depletion factor). Put shortly:
as §1

Another data set addresses HNRNPA2B1 (UniProt P22626). Nature of the data set: Kd (EC50 corrected by depletion factor). Put shortly:
as §1

In another data set the target is TTC37 (UniProt Q6PGP7). Nature of the data set: Kd (EC50 corrected by depletion factor). A digest of the protocol:
as §1

One may read the EC50 as the concentration needed to bring the measured effect to its halfway point. The term Kd denotes the constant that tells how readily two partners part at equilibrium. A lower Kd goes with higher affinity.

Chain of HNRNPA2B1 (P22626 whole entry): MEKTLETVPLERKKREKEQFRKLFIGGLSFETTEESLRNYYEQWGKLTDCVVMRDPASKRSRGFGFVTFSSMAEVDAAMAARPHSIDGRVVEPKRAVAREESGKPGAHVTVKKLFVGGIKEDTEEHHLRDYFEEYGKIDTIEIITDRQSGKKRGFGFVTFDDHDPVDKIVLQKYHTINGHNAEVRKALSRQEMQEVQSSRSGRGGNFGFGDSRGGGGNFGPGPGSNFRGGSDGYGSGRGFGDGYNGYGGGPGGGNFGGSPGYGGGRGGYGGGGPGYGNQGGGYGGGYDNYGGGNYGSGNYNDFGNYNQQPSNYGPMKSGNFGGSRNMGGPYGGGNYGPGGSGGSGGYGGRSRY
Chain of SRRM2 (Q9UQ35 whole entry): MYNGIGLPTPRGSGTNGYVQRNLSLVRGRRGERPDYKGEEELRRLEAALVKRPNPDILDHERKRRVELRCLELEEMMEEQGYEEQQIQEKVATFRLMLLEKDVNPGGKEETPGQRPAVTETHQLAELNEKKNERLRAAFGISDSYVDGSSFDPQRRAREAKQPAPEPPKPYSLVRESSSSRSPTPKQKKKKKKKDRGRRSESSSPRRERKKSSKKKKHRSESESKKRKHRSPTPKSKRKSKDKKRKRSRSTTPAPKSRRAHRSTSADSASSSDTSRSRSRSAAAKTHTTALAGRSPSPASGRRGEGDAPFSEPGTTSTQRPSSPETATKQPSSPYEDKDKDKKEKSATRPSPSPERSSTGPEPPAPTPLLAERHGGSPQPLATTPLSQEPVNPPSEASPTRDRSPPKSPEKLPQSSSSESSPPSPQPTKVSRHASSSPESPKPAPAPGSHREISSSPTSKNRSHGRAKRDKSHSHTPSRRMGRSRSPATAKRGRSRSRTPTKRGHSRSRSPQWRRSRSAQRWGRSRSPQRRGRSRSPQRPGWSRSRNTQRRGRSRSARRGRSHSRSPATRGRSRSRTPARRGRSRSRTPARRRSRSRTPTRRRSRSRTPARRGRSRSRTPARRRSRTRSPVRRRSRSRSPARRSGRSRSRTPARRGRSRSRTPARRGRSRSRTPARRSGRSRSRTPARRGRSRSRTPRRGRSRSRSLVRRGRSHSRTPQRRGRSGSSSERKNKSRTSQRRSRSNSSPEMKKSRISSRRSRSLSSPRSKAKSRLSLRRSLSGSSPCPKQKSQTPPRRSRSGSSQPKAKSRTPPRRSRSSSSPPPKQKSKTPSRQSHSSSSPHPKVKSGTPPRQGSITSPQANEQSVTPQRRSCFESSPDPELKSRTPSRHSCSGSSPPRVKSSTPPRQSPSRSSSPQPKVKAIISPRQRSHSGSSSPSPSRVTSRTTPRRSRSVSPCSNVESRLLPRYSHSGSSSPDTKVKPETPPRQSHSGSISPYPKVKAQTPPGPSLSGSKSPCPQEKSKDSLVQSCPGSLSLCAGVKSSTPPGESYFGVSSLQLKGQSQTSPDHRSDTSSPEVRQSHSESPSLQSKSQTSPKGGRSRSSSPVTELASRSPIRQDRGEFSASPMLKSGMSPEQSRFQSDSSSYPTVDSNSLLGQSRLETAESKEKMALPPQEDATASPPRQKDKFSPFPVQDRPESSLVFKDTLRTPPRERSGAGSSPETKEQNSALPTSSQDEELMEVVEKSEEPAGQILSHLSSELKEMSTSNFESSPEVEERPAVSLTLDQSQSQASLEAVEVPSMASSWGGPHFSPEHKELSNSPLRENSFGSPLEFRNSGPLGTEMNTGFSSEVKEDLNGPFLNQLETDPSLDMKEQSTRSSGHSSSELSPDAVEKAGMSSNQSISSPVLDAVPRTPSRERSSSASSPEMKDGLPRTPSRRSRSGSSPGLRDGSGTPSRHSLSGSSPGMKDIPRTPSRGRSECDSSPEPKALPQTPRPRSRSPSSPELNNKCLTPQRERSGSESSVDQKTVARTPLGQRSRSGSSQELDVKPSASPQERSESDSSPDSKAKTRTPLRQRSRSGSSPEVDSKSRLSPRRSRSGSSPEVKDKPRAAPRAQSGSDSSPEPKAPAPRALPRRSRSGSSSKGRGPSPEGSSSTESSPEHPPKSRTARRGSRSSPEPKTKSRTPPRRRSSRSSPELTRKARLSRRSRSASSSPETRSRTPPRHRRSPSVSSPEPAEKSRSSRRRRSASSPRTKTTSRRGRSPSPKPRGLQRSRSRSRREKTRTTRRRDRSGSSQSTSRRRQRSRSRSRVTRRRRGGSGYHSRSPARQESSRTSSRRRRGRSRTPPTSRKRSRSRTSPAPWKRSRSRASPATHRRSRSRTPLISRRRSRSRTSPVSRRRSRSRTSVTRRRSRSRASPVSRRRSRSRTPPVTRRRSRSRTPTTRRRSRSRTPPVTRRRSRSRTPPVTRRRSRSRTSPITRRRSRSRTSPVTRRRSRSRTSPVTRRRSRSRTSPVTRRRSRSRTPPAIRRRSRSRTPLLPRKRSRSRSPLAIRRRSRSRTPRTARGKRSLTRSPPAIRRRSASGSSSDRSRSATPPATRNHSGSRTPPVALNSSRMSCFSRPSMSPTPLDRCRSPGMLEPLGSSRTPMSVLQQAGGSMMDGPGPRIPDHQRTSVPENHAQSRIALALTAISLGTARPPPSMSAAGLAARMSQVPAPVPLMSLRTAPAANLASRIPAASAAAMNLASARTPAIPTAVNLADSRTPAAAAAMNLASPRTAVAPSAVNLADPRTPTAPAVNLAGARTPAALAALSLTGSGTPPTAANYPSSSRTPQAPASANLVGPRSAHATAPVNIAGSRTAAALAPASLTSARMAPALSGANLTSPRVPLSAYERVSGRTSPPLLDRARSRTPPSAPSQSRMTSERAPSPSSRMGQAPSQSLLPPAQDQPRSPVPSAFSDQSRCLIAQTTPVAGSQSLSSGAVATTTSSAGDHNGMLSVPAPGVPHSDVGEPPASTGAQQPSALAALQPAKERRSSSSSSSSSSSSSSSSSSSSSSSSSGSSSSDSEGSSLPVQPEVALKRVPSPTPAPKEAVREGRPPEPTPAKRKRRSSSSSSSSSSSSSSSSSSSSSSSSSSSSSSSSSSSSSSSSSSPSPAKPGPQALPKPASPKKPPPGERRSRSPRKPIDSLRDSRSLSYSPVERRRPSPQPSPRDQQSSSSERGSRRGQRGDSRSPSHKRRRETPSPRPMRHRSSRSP
Chain of TTC37 (Q6PGP7 whole entry): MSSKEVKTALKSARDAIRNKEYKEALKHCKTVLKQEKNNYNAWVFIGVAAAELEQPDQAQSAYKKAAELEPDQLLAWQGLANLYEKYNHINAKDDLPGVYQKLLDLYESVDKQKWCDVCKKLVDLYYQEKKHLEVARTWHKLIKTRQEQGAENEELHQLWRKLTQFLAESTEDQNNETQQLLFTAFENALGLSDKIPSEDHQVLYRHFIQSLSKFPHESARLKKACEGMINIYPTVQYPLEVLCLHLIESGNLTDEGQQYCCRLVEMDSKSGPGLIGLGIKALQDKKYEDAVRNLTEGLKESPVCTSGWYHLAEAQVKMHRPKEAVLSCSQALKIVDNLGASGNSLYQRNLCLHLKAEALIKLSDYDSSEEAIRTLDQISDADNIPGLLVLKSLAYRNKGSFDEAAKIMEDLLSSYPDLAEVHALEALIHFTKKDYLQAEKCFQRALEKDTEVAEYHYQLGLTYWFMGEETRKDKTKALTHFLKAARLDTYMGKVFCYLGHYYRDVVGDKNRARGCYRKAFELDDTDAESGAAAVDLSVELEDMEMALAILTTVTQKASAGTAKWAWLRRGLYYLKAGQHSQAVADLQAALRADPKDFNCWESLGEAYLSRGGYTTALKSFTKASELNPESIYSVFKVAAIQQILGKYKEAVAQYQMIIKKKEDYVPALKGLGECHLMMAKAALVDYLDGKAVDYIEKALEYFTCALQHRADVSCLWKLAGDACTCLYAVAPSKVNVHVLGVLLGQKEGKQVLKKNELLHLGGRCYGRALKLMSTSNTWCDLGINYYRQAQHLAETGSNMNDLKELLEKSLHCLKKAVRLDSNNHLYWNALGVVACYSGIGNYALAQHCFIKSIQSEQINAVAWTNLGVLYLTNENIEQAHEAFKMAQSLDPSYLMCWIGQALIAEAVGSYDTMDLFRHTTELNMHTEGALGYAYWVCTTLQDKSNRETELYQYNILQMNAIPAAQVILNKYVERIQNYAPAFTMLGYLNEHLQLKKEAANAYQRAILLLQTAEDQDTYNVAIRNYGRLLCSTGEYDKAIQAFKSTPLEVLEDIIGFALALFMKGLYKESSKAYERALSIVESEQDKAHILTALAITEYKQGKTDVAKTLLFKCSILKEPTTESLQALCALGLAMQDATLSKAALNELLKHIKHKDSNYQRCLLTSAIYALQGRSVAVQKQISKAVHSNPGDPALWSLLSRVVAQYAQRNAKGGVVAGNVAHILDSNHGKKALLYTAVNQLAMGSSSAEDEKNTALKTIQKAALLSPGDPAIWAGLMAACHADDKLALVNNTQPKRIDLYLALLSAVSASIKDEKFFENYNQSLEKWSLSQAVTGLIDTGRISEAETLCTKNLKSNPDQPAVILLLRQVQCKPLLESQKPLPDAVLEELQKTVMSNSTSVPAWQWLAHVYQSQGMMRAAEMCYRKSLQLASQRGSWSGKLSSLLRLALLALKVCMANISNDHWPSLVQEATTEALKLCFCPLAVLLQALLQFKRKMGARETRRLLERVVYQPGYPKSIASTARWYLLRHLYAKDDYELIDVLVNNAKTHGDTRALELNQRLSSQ

For the sequence AAUAAA, the half-maximal effective concentration (EC50) in the data set with FIP1L1 was 64.8 nM; with MEX3A it was 1470 nM. Also, the Kd worked out at 367 nM with SRRM2 and 37.5 nM with P4HA2.
As to CUGUCCU, the Kd worked out at 64.2 nM with RPS3A; 101 nM with MRPL39; 42.6 nM in the data set with RPS18; 100 nM with MRPL53; 25.2 nM in the data set with RPS25.
Take UAUUUAU: the EC50 with FIP1L1 stood at 1390 nM; with MEX3A, 989 nM. The Kd in the data set with ZCRB1 was 3450 nM; with MRPS27, 49.8 nM; with ERAL1 it was 25.5 nM; with HNRNPA2B1, 4900 nM; with TTC37, 577 nM.
